To fix the notation:
B1: Tumor protein p73, residues 487 to 549; numbered along this chain, O15350 (parent)
chain: YHADPSLVSFLTGLGCPNCIEYFTSQGLQSIYHLQNLTIEDLGALKIPEQYRMTIWRGLQDLK

This is an account of results in the Human Domainome abundance scans (Beltran et al. 2025).

± gives the uncertainty stated by the source.

Variants of B1 are the subject of this data set. Kind of data set: abundance fitness (aPCA) (normalised: wild type 0, dead -1); higher = more abundant; growth selection in yeast, the domain comes from the species named. The conditions noted are these: Homo sapiens.
With YHADPSLVSFLFGLGCPNCIEYFTSQGLQSIYHLQNLTIEDLGALKIPEQYRMTIWRGLQDLK [T12F], the abundance fitness was -0.092 ± 0.078.
Consider YHADPSLVSFLEGLGCPNCIEYFTSQGLQSIYHLQNLTIEDLGALKIPEQYRMTIWRGLQDLK [T12E], for which the abundance fitness came out at 0.114 ± 0.044.
Take YHADPSLVSFLRGLGCPNCIEYFTSQGLQSIYHLQNLTIEDLGALKIPEQYRMTIWRGLQDLK [T12R]: the abundance fitness is 0.058 ± 0.028.
As for YHADPSLVSFLHGLGCPNCIEYFTSQGLQSIYHLQNLTIEDLGALKIPEQYRMTIWRGLQDLK [T12H], the figure is 0.01 ± 0.061; as for YHADPSLVSFLLGLGCPNCIEYFTSQGLQSIYHLQNLTIEDLGALKIPEQYRMTIWRGLQDLK [T12L], -0.146 ± 0.034.
As for YHADPSLVSFLSGLGCPNCIEYFTSQGLQSIYHLQNLTIEDLGALKIPEQYRMTIWRGLQDLK [T12S], the figure is -0.05 ± 0.042.
For YHADPSLVSFLPGLGCPNCIEYFTSQGLQSIYHLQNLTIEDLGALKIPEQYRMTIWRGLQDLK [T12P], the abundance fitness is -1.1 ± 0.15.
Turning to YHADPSLVSFLGGLGCPNCIEYFTSQGLQSIYHLQNLTIEDLGALKIPEQYRMTIWRGLQDLK [T12G], the abundance fitness stood at 0.1 ± 0.039.
Regarding YHADPSLVSFLNGLGCPNCIEYFTSQGLQSIYHLQNLTIEDLGALKIPEQYRMTIWRGLQDLK [T12N], the abundance fitness was 0.117 ± 0.083.
Next, YHADPSLVSFPTGLGCPNCIEYFTSQGLQSIYHLQNLTIEDLGALKIPEQYRMTIWRGLQDLK [L11P]: -1.17 ± 0.25; YHADPSLVSFYTGLGCPNCIEYFTSQGLQSIYHLQNLTIEDLGALKIPEQYRMTIWRGLQDLK [L11Y]: -0.518 ± 0.1.
Next, YHADPSLVSFQTGLGCPNCIEYFTSQGLQSIYHLQNLTIEDLGALKIPEQYRMTIWRGLQDLK [L11Q]: -0.053 ± 0.11.
As for YHADPSLVSFWTGLGCPNCIEYFTSQGLQSIYHLQNLTIEDLGALKIPEQYRMTIWRGLQDLK [L11W], the abundance fitness was -0.914 ± 0.15.
Next, YHADPSLVSFSTGLGCPNCIEYFTSQGLQSIYHLQNLTIEDLGALKIPEQYRMTIWRGLQDLK [L11S]: -1 ± 0.1.
Next, YHADPSLVSFTTGLGCPNCIEYFTSQGLQSIYHLQNLTIEDLGALKIPEQYRMTIWRGLQDLK [L11T]: -0.858 ± 0.13.
For YHADPSLVSFLTGLGQPNCIEYFTSQGLQSIYHLQNLTIEDLGALKIPEQYRMTIWRGLQDLK [C16Q], the abundance fitness was -0.504 ± 0.092.
For YHADPSLVSFLTGLGIPNCIEYFTSQGLQSIYHLQNLTIEDLGALKIPEQYRMTIWRGLQDLK [C16I], the abundance fitness came to 0.146 ± 0.12.
As for YHADPSLVSFLTGLGMPNCIEYFTSQGLQSIYHLQNLTIEDLGALKIPEQYRMTIWRGLQDLK [C16M], the figure is 0.002 ± 0.065; as for YHADPSLVSFLTGLGDPNCIEYFTSQGLQSIYHLQNLTIEDLGALKIPEQYRMTIWRGLQDLK [C16D], -0.923 ± 0.23.
As for YHADPSLVSFLTGLGKPNCIEYFTSQGLQSIYHLQNLTIEDLGALKIPEQYRMTIWRGLQDLK [C16K], the abundance fitness was -0.322 ± 0.062.
As for YHADPSLVSFLTGLGGPNCIEYFTSQGLQSIYHLQNLTIEDLGALKIPEQYRMTIWRGLQDLK [C16G], the figure is -0.754 ± 0.091; as for YHADPSLVSFLTGLGFPNCIEYFTSQGLQSIYHLQNLTIEDLGALKIPEQYRMTIWRGLQDLK [C16F], -0.144 ± 0.084; as for YHADPSLVSFLTGLGAPNCIEYFTSQGLQSIYHLQNLTIEDLGALKIPEQYRMTIWRGLQDLK [C16A], -0.176 ± 0.066.
Next, YHADPSLVSFLTGLGRPNCIEYFTSQGLQSIYHLQNLTIEDLGALKIPEQYRMTIWRGLQDLK [C16R]: -0.407 ± 0.041; YHADPSLVSFLTGLGHPNCIEYFTSQGLQSIYHLQNLTIEDLGALKIPEQYRMTIWRGLQDLK [C16H]: -0.047 ± 0.054.
With YHADPSLVSFLTGLGPPNCIEYFTSQGLQSIYHLQNLTIEDLGALKIPEQYRMTIWRGLQDLK [C16P], the abundance fitness is -1.01 ± 0.27.
As for YHADPSLVSFLTGLGEPNCIEYFTSQGLQSIYHLQNLTIEDLGALKIPEQYRMTIWRGLQDLK [C16E], the figure is -0.8 ± 0.2; as for YHADPSLVSFLTGLHCPNCIEYFTSQGLQSIYHLQNLTIEDLGALKIPEQYRMTIWRGLQDLK [G15H], -0.26 ± 0.13.
Next, YHADPSLVSFLTGLWCPNCIEYFTSQGLQSIYHLQNLTIEDLGALKIPEQYRMTIWRGLQDLK [G15W]: -0.854 ± 0.099; YHADPSLVSFLTGLYCPNCIEYFTSQGLQSIYHLQNLTIEDLGALKIPEQYRMTIWRGLQDLK [G15Y]: -0.462 ± 0.084; YHADPSLVSFLTGLKCPNCIEYFTSQGLQSIYHLQNLTIEDLGALKIPEQYRMTIWRGLQDLK [G15K]: -0.062 ± 0.058.
As to YHADPSLVSFLTGLICPNCIEYFTSQGLQSIYHLQNLTIEDLGALKIPEQYRMTIWRGLQDLK [G15I], the abundance fitness was -0.937 ± 0.27.
With YHADPSLVSFLTGLFCPNCIEYFTSQGLQSIYHLQNLTIEDLGALKIPEQYRMTIWRGLQDLK [G15F], the abundance fitness is -0.508 ± 0.097.
Next, YHADPSLVSFLTGLSCPNCIEYFTSQGLQSIYHLQNLTIEDLGALKIPEQYRMTIWRGLQDLK [G15S]: -0.17 ± 0.036.
Next, YHADPSLVSFLTGLQCPNCIEYFTSQGLQSIYHLQNLTIEDLGALKIPEQYRMTIWRGLQDLK [G15Q]: -0.124 ± 0.037; YHADPSLVSFLTGLRCPNCIEYFTSQGLQSIYHLQNLTIEDLGALKIPEQYRMTIWRGLQDLK [G15R]: -0.153 ± 0.034.
Take YHADPSLVSFLTGLVCPNCIEYFTSQGLQSIYHLQNLTIEDLGALKIPEQYRMTIWRGLQDLK [G15V]: the abundance fitness is -0.606 ± 0.059.
Consider YHADPSLVSFLTGLMCPNCIEYFTSQGLQSIYHLQNLTIEDLGALKIPEQYRMTIWRGLQDLK [G15M], for which the abundance fitness is -0.463 ± 0.059.
On to YHADPSLVSFLTGLLCPNCIEYFTSQGLQSIYHLQNLTIEDLGALKIPEQYRMTIWRGLQDLK [G15L], for which the abundance fitness is -0.616 ± 0.065.
Next, YHADPSLVSFLTGLTCPNCIEYFTSQGLQSIYHLQNLTIEDLGALKIPEQYRMTIWRGLQDLK [G15T]: -0.549 ± 0.055.
With YHADPSLVSFLTGLNCPNCIEYFTSQGLQSIYHLQNLTIEDLGALKIPEQYRMTIWRGLQDLK [G15N], the abundance fitness is -0.002 ± 0.053.
For the variant YHADPSLVSFLTGLACPNCIEYFTSQGLQSIYHLQNLTIEDLGALKIPEQYRMTIWRGLQDLK [G15A], the abundance fitness is -0.124 ± 0.043.
On to YHADPSLVSFLTGLCCPNCIEYFTSQGLQSIYHLQNLTIEDLGALKIPEQYRMTIWRGLQDLK [G15C], for which the abundance fitness is -0.226 ± 0.063.
